In patent US20160002326A1:

Legend:
rabbit IL-17 (rabbit) [1] = assay: cell-based or functional assay
rabbit IL-17 (rabbit) [2] = assay: Biacore SPR, 3 experiments; unit not printed in Table 10
mouse IL-17 (mouse) = mouse IL-17 (mouse) (UniProt Q62386); assay: assay not stated (Table 5, 'Source And Binding Information')
mouse IL-17 (mouse), sequence (Q62386 26-158 limits assumed): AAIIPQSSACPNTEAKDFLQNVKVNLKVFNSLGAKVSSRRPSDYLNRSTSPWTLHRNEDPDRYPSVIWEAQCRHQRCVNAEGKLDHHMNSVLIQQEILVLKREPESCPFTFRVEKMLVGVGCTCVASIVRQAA

ABBV-257 anti-human TNF and IL-17 DVD-Ig binding protein (bispecific antibody), sequence (heavy): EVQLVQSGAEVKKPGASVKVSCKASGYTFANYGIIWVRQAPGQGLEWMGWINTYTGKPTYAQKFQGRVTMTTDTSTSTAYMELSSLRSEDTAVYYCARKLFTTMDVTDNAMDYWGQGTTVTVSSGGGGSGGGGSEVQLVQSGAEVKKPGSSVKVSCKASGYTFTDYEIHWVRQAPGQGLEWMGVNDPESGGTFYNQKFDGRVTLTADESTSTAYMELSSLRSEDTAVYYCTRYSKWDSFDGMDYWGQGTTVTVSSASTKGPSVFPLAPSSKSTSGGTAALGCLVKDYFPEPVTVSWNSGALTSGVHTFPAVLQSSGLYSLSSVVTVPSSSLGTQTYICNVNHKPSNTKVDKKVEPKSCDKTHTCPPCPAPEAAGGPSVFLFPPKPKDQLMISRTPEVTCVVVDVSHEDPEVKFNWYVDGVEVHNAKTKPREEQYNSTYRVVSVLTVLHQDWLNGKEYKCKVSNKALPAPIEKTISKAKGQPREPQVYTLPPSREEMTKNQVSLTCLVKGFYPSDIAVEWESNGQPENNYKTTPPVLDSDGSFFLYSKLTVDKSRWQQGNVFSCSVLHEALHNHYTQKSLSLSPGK
ABBV-257 anti-human TNF and IL-17 DVD-Ig binding protein (bispecific antibody), sequence (light): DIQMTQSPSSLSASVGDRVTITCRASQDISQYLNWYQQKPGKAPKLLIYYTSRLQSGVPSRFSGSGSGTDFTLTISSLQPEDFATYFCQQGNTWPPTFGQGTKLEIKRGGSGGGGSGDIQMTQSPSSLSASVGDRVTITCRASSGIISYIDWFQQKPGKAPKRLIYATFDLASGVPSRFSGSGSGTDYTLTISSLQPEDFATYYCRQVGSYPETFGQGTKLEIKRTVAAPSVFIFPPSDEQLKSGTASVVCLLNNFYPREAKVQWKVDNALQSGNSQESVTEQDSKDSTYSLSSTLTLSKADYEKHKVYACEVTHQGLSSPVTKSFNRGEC

Substance | IC50, in vitro neutralization assay (In-Vitro Potency) (rabbit IL-17 (rabbit) [1]) [nM] | Kd (rabbit IL-17 (rabbit) [2]) [nM] | IC50 (mouse IL-17 (mouse)) [nM]
ABBV-257 anti-human TNF and IL-17 DVD-Ig binding protein (bispecific antibody) | 11.4 | 3.3 | 
MAB421 anti-IL-17 antibody |  |  | 0.7
